Source: publication PMC5915145, “CNPY2 inhibits MYLIP-mediated AR protein degradation in prostate cancer cells” (Oncotarget, 2018)

Target: T1, recombinant UBE2D1-His (UniProt P51668 1-147)
T1 construct: UBE2D1 (UbcH5a), E2 ubiquitin conjugating enzyme; The methods of the pull-down call it UBE2D-His; also called UBE2D-His; source: E. coli, recombinant (pET29a (+) or pGEX4T1 vector); purification not described; not shown: His, C-terminal, kept
Assay: pull-down; GST-RING (8 ug) on Glutathione Sepharose beads with recombinant UBE2D-His (5 ug) or immunoprecipitated FLAG-CNPY2 (5 or 15 ug), 4 C, 30 min; 50 mM Tris-HCl pH 7.5, 150 mM NaCl, 5 mM EDTA, 0.5% NP40; immunoblotting
Conditions: both partners purified

T1 sequence (P51668 whole entry): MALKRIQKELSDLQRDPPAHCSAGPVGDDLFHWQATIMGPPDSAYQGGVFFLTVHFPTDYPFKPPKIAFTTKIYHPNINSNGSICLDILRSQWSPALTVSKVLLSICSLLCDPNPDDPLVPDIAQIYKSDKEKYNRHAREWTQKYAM

B1: recombinant GST-fused RING domain of MYLIP (344-445 a.a.) (domain or fragment, UniProt Q8WY64 344-445, looked up)
chain: QSPSHSPLKSSESSMNCSSCEGLSCQQTRVLQEKLRKLKEAMLCMVCCEEEINSTFCPCGHTVCCESCAAQLQSCPVCRSRVEHVQHVYLPTHTSLLNLTVI
notes: MYLIP, RING domain, residues 344-445; Held on Glutathione Sepharose beads in the pull-down; pGEX4T1 vector); also called GST-RING; MYLIP RING; source: E. coli BL21 (DE3), purified (Glutathione Sepharose, eluted with 40 mM reduced glutathione); not shown: GST, N-terminal, kept
B1: binds.
